Positions count from the first letter of the chain named.
B1: 6D11: murine anti-human EpCAM monoclonal antibody (IgG1, K), hybridoma m338-6D11.8; VH SEQ ID NO:23, VL SEQ ID NO:25 (antibody, listed as Mus musculus, V domains shown)
VH: EVQLVESGGDLVKPGGSLKLSCAASGFAFDSYGMSWIRQTPGTRLEWVATISSGGYYTYYEDNVKGRFIISRDNAKNTLDLQMSGLKSEDAATYYCARRGNYDVDYYAMDYWGQGTSVIVSS
VL: DVVLTQIPLSLPVSLGDQASISCRSSQSLEHSNGNTYLHWYLQKPGQSPKLLIYKVSNRFSGVPDRFSGSGSGTDFTLKISRVEAEDLGVYFCSQSTHVPPWTFGGGTKLEFKR
B2: 4D2: murine anti-human EpCAM monoclonal antibody (IgG1, K), hybridoma m338-4D2.20; VH SEQ ID NO:19, VL SEQ ID NO:21 (antibody, listed as Mus musculus, V domains shown)
VH: B1 VH with I37V, T43K, E61Q, N63S, I69T, I70T, G85S, A91S, T93I, I119T
VL: B1 VL with L4M, I7T, E30V, K79R, F112I
B3: 2D11: murine anti-human EpCAM monoclonal antibody (IgG1, K), hybridoma m322-2D11.19; VH SEQ ID NO:15, VL SEQ ID NO:17 (antibody, listed as Mus musculus, V domains shown)
VH: QIQLVQSGPELKKPGETVKISCKASGYTFTNYGMNWVKQAPGKGLKWMGWINTNTGEATYVEEFKGRVVFSLETSASTAYLQINNLKNEDTATYFCARIGYVWYFDVWGAGTTVTVSS
VL: DIVMSQSPSSLAVSAGEKVTMSCKSSQSLFSSRTRKNYLAWYQQKPGQSPKLLIYWASTRESGVPDRFTGSGSGTDFTLTINSVQAEDLAVYYCKHSNNLFTFGSGTKLEIKR

What follows are molecules tested on CHO parental cells (assay: FACS binding of anti-EpCAM antibodies to CHO parental cells). Details: antibody 0.1 μg/ml; HPS at 300x dilution.
Set-up: species or system Chinese hamster
Experimental: 1×10^5 CHO/EpCAM or CHO parental cells were seeded in each well of a v-bottomed 96-well plate and incubated with purified anti-EpCAM antibodies or mouse IgG control antibody 9E10 at concentration of 0.1 μg/ml. A 300× dilution of human cell hyper-immune serum (HPS 300×) was used as binding positive control for both cell lines here. After 1 hr incubation at 4° C., cells were washed twice with 200 μl FACS buffer (1×PBS containing 1% FBS), stained with 100 μl of 1 μg/ml goat-anti-mouse IgG-PE (Southern Biotech, Cat. No. 1032-09) in FACS buffer and then incubated at 4° C. for 30 min. Cells were washed thrice with FACS buffer and analyzed by flow cytometry (BD LSR, BD Life Sciences).

Row | Molecule | Binding (FACS, Mean fluorescence intensity (MFI)) CHO
1 | B1 | 5
2 | B2 | 5
3 | B3 | 6

These molecules were tested on Breast cancer T-47D cells (assay: Antibody cytotoxicity assay (Annexin V + PI), T-47D). Details: 1, 3 and 10 μg/ml, overnight.
Type: cell-based
Experimental: (§1) After a 17-20 hr incubation at 37° C., cells were stained with 0.3 μl of FITC-conjugated Annexin V (Strong Biotech Corp. Cat. No. AVK250) in 50 μl Annexin V binding buffer (Strong Biotech Corp. Cat. No. AVK250) at RT for 20 min. After wash, the cells were then stained with 0.3 μl of propidium iodide in 200 μl Annexin V binding buffer. Annexin V and Propidium Iodide were used as a joint indicator for cell death. The data were acquired with BD FACSCalibur based on an acquisition of 3,000-5,000 cells and analyzed with the Cell Quest software. The combined percentages of the Annexin V+/PI+, Annexin V+/PI− and Annexin V−/PI+populations were considered as dead cells.

Row | Molecule | Induction of cell death (in words)
4 | B1 | substantial cell death
5 | B2 | substantial cell death
6 | B3 | substantial cell death

Each molecule was assayed on Colorectal cancer DLD-1 cells (assay: Antibody cytotoxicity assay (Annexin V + PI), DLD-1). Details: 1, 3 and 10 μg/ml, overnight.
Type: cell-based
Experimental: as §1

Row | Molecule | Induction of cell death (in words)
7 | B1 | substantial cell death
8 | B2 | substantial cell death
9 | B3 | substantial cell death

What follows are molecules tested on Gastric cancer NCI-N87 cells (assay: Antibody cytotoxicity assay (Annexin V + PI), NCI-N87). Details: 1, 3 and 10 μg/ml, overnight.
Type: cell-based
Experimental: as §1

Row | Molecule | Induction of cell death (in words)
10 | B1 | substantial cell death
11 | B2 | substantial cell death
12 | B3 | substantial cell death

The molecules below were run on Lung cancer NCI-H520 cells (assay: Antibody cytotoxicity assay (Annexin V + PI), NCI-H520). Details: 1, 3 and 10 μg/ml, overnight.
Type: cell-based
Experimental: as §1

Row | Molecule | Induction of cell death (in words)
13 | B1 | substantial cell death
14 | B2 | substantial cell death
15 | B3 | substantial cell death

What follows are molecules tested on Prostate cancer LNCaP cells (assay: Antibody cytotoxicity assay (Annexin V + PI), LNCaP). Details: 1, 3 and 10 μg/ml, overnight.
Type: cell-based
Experimental: as §1

Row | Molecule | Induction of cell death (in words)
16 | B1 | substantial cell death
17 | B2 | substantial cell death
18 | B3 | substantial cell death

What follows are molecules tested on Pharynx cancer FaDu cells (assay: Antibody cytotoxicity assay (Annexin V + PI), FaDu). Details: 1, 3 and 10 μg/ml, overnight.
Type: cell-based
Experimental: as §1

Row | Molecule | Induction of cell death (in words)
19 | B1 | substantial cell death
20 | B2 | substantial cell death
21 | B3 | substantial cell death

Each molecule was assayed on Ovarian cancer NIH:OVCAR-3 cells (assay: Antibody cytotoxicity assay (Annexin V + PI), NIH:OVCAR-3). Details: 1, 3 and 10 μg/ml, overnight.
Type: cell-based
Experimental: as §1

Row | Molecule | Induction of cell death (in words)
22 | B1 | substantial cell death
23 | B2 | substantial cell death
24 | B3 | substantial cell death

What follows are molecules tested on NCI-H358 lung cancer cells (assay: Cell death in NCI-H358 lung cancer cells (Annexin V + PI)). Details: mean of 5 experiments; mAb 10 μg/ml; 17 hr.
Type: cell-based, human
Experimental: 5×10^4 NCI-H358 cells were seeded to each well of a 96-well plate, and then 10 μg/ml of anti-EpCAM or control (9E10) mAbs diluted in the medium was added into the cells. After a 17-hr incubation at 37° C., the cells were stained with 0.3 μl of FITC-conjugated Annexin V (Strong Biotech Corp. Cat. No. AVK250) in 50 μl Annexin V binding buffer (Strong Biotech Corp. Cat. No. AVK250) at RT for 20 min. After wash, the cells were then stained with 0.3 μl of propidium iodide in 200 μl Annexin V binding buffer. Annexin V and Propidium Iodide were used as a joint indicator for measuring cell death. The data were acquired with BD FACSCalibur based on an acquisition of 3,000-5,000 cells and analyzed with the Cell Quest software. The combined percentages of the Annexin V+/PI+, Annexin V+/PI− and Annexin V−/PI+populations were considered as dead cells.

Row | Molecule | % of Annexin V + PI staining (untreated background subtracted), Mean ± SEM [%]
25 | B1 | 42.4 ± 1.0
26 | B2 | 43.6 ± 0.9
27 | B3 | 39.4 ± 3.0

Source: patent publication US20110165161A1, “ANTI-EPCAM ANTIBODIES THAT INDUCE APOPTOSIS OF CANCER CELLS AND METHODS USING SAME” (priority 2009, published 2011)
